Measured values from patent publication US11278600B2, “Human alpha-galactosidase variants” (Codexis, Inc., priority 2014, dated 2022).

Legend:
Type in all cases: biochemical
[1] = HTP-analysis of supernatants pretreated with acid (MUGal hydrolysis); conditions: activity of the variant/activity of Rd4BB (SEQ ID NO: 15); challenge at pH 3.7
Summary of the method: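 Fluorescence of MUGal hydrolysis (Ex. 355 nm, Em. 448 nm) is read after sodium carbonate quench. The enzyme source is INVSc1 yeast culture supernatant, first exposed to pH 3.3-4.3 McIlvaine buffer at 37° C. for 1-3 h, then reacted at pH 4.8 for 30-180 minutes.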

[2] = HTP-analysis of supernatants pretreated with base (MUGal hydrolysis); conditions: activity of the variant/activity of Rd4BB (SEQ ID NO: 15); challenge at pH 9.65
Summary of the method: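 GLA variants were secreted by transformed INVSc1 yeast grown 66-84 h at 30° C. Supernatants were exposed to neutral-to-basic buffers (pH 7.0-9.7) at 37° C for 1-18 h, then assayed with MUGal in acidic citrate/McIlvaine buffer, with fluorescence read after quenching.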

[3] = HTP-analysis of yeast culture supernatants, no challenge (MUGal hydrolysis); conditions: activity of the variant/activity of Rd4BB (SEQ ID NO: 15)
Summary of the method: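 GLA variants expressed in yeast INVSc1, secreted into SD-Ura broth over 66-84 h at 30° C; clarified supernatants tested without challenge. Supernatant mixed with McIlvaine buffer pH 4.8 and 2 mM MUGal (citrate/KCl, pH 4.6), 37° C for 30-180 min, carbonate-quenched, fluorescence Ex 355/Em 448 nm.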

B1: 408 (protein)
chain: LDNGLARTPTMGWLHWERFMCNLDCQEEPDSCISEKLFMEMAERMVSEGWKDAGYEYLCIDDCWMAPQRDSEGRLQADPQRFPHGIRQLANYVHSKGLKLGIYADVGNKTCAGFPGSFGYYDIDAQTFADWGVDLLKFDGCYCDSLENLADGYKHMSLALNRTGRRIVYSCEWPLYMWPFQKPNYTEIRQYCNHWRNFADIDDSWKSIKSILDWTSRNQERIVDVAGPGGWNDPDMLVIGNFGLSWDQQVTQMALWAIMAAPLFMSNDLRHISPQAKALLQDKDVIAINQDPLGKQGYQLRKGDNFEVWERPLSGDAWAVAIINRQEIGGPRSYTIPVASLGKGVACNPACFITQLLPVKRQLGFYNWTSRLKSHINPTGTVLLQLENTMQMSLKDLL
modifications: Synthetic Polypeptide sequence of Variant No. 408 of mature Human GLA
- Relative Activity of GLA Variants After Challenge at pH 3.7 [1]: + (0.5 to 1.5 relative activity over Rd4BB (SEQ ID NO: 15))
- Relative Activity of GLA Variants After Challenge at pH 9.65 [2]: + (0.5 to 1.5 relative activity over Rd4BB (SEQ ID NO: 15))
- Relative Activity of GLA Variants After No Challenge (NC) [3]: + (0.5 to 1.5 relative activity over Rd4BB (SEQ ID NO: 15))

B2: 416 (protein)
chain: LDNGLARTPTMGWLHWERFMCNLDCQEEPDSCISEKLFMEMAERMVSEGWKDAGYEYLCIDDCWMAPQRDSEGRLQADPQRFPHGIRQLANYVHSKGLKLGIYADVGNKTCAGFPGSFGYYDIDAQTFADWGVDLLKFDGCYCDSLENLADGYKHMSLALNGTGRSIVYSCEWPLYMWPFQKPNYTEIRQYCNHWRNFADIDDSWKSIKSILDWTSRNQERIVDVAGPGGWNDPDMLVIGNFGLSWDQQVTQMALWAIMAAPLFMSNDLRHISPQAKALLQDKDVIAINQDPLGKQGYQLRKGDNFEVWERPLSGDAWAVAIINRQEIGGPRSYTIPVASLGKGVACNPACFITQLLPVKRQLGFYNWTSRLKSHINPTGTVLLQLENTMQMSLKDLL
modifications: Synthetic Polypeptide sequence of Variant No. 416 of mature Human GLA
- Relative Activity of GLA Variants After Challenge at pH 3.7 [1]: + (0.5 to 1.5 relative activity over Rd4BB (SEQ ID NO: 15))
- Relative Activity of GLA Variants After Challenge at pH 9.65 [2]: − (<0.5 relative activity over Rd4BB (SEQ ID NO: 15))
- Relative Activity of GLA Variants After No Challenge (NC) [3]: + (0.5 to 1.5 relative activity over Rd4BB (SEQ ID NO: 15))

B3: 410 (protein)
chain: LDNGLARTPTMGWLHWERFMCNLDCQEEPDSCISEKLFMEMAERMVSEGWKDAGYEYLCIDDCWMAPQRDSEGRLQADPQRFPHGIRQLANYVHSKGLKLGIYADVGNKTCAGFPGSFGYYDIDAQTFADWGVDLLKFDGCYCDSLENLADGYKHMSLALNHTGRSIVYSCEWPLYMWPFQKPNYTEIRQYCNHWRNFADIDDSWKSIKSILDWTSRNQERIVDVAGPGGWNDPDMLVIGNFGLSWDQQVTQMALWAIMAAPLFMSNDLRHISPQAKALLQDKDVIAINQDPLGKQGYQLRKGDNFEVWERPLSGDAWAVAIINRQEIGGPRSYTIPVASLGKGVACNPACFITQLLPVKRQLGFYNWTSRLKSHINPTGTVLLQLENTMQMSLKDLL
modifications: Synthetic Polypeptide sequence of Variant No. 410 of mature Human GLA
- Relative Activity of GLA Variants After Challenge at pH 3.7 [1]: + (0.5 to 1.5 relative activity over Rd4BB (SEQ ID NO: 15))
- Relative Activity of GLA Variants After Challenge at pH 9.65 [2]: − (<0.5 relative activity over Rd4BB (SEQ ID NO: 15))
- Relative Activity of GLA Variants After No Challenge (NC) [3]: + (0.5 to 1.5 relative activity over Rd4BB (SEQ ID NO: 15))

B4: 415 (protein)
chain: LDNGLARTPTMGWLHWERFMCNLDCQEEPDSCISEKLFMEMAERMVSEGWKDAGYEYLCIDDCWMAPQRDSEGRLQADPQRFPHGIRQLANYVHSKGLKLGIYADVGNKTCAGFPGSFGYYDIDAQTFADWGVDLLKFDGCYCDSLENLADGYKHMSLALNRTGRDIVYSCEWPLYMWPFQKPNYTEIRQYCNHWRNFADIDDSWKSIKSILDWTSRNQERIVDVAGPGGWNDPDMLVIGNFGLSWDQQVTQMALWAIMAAPLFMSNDLRHISPQAKALLQDKDVIAINQDPLGKQGYQLRKGDNFEVWERPLSGDAWAVAIINRQEIGGPRSYTIPVASLGKGVACNPACFITQLLPVKRQLGFYNWTSRLKSHINPTGTVLLQLENTMQMSLKDLL
modifications: Synthetic Polypeptide sequence of Variant No. 415 of mature Human GLA
- Relative Activity of GLA Variants After Challenge at pH 3.7 [1]: + (0.5 to 1.5 relative activity over Rd4BB (SEQ ID NO: 15))
- Relative Activity of GLA Variants After Challenge at pH 9.65 [2]: + (0.5 to 1.5 relative activity over Rd4BB (SEQ ID NO: 15))
- Relative Activity of GLA Variants After No Challenge (NC) [3]: + (0.5 to 1.5 relative activity over Rd4BB (SEQ ID NO: 15))

B5: 411 (protein)
chain: LDNGLARTPTMGWLHWERFMCNLDCQEEPDSCISEKLFMEMAERMVSEGWKDAGYEYLCIDDCWMAPQRDSEGRLQADPQRFPHGIRQLANYVHSKGLKLGIYADVGNKTCAGFPGSFGYYDIDAQTFADWGVDLLKFDGCYCDSLENLADGYKHMSLALNRTGRAIVYSCEWPLYMWPFQKPNYTEIRQYCNHWRNFADIDDSWKSIKSILDWTSRNQERIVDVAGPGGWNDPDMLVIGNFGLSWDQQVTQMALWAIMAAPLFMSNDLRHISPQAKALLQDKDVIAINQDPLGKQGYQLRKGDNFEVWERPLSGDAWAVAIINRQEIGGPRSYTIPVASLGKGVACNPACFITQLLPVKRQLGFYNWTSRLKSHINPTGTVLLQLENTMQMSLKDLL
modifications: Synthetic Polypeptide sequence of Variant No. 411 of mature Human GLA
- Relative Activity of GLA Variants After Challenge at pH 3.7 [1]: + (0.5 to 1.5 relative activity over Rd4BB (SEQ ID NO: 15))
- Relative Activity of GLA Variants After Challenge at pH 9.65 [2]: + (0.5 to 1.5 relative activity over Rd4BB (SEQ ID NO: 15))
- Relative Activity of GLA Variants After No Challenge (NC) [3]: + (0.5 to 1.5 relative activity over Rd4BB (SEQ ID NO: 15))

B6: 409 (protein)
chain: LDNGLARTPTMGWLHWERFMCNLDCQEEPDSCISEKLFMEMAERMVSEGWKDAGYEYLCIDDCWMAPQRDSEGRLQADPQRFPHGIRQLANYVHSKGLKLGIYADVGNKTCAGFPGSFGYYDIDAQTFADWGVDLLKFDGCYCDSLENLADGYKHMSLALNRTGHSIVYSCEWPLYMWPFQKPNYTEIRQYCNHWRNFADIDDSWKSIKSILDWTSRNQERIVDVAGPGGWNDPDMLVIGNFGLSWDQQVTQMALWAIMAAPLFMSNDLRHISPQAKALLQDKDVIAINQDPLGKQGYQLRKGDNFEVWERPLSGDAWAVAIINRQEIGGPRSYTIPVASLGKGVACNPACFITQLLPVKRQLGFYNWTSRLKSHINPTGTVLLQLENTMQMSLKDLL
modifications: Synthetic Polypeptide sequence of Variant No. 409 of mature Human GLA
- Relative Activity of GLA Variants After Challenge at pH 3.7 [1]: + (0.5 to 1.5 relative activity over Rd4BB (SEQ ID NO: 15))
- Relative Activity of GLA Variants After Challenge at pH 9.65 [2]: − (<0.5 relative activity over Rd4BB (SEQ ID NO: 15))
- Relative Activity of GLA Variants After No Challenge (NC) [3]: + (0.5 to 1.5 relative activity over Rd4BB (SEQ ID NO: 15))

B7: 412 (protein)
chain: LDNGLARTPTMGWLHWERFMCNLDCQEEPDSCISEKLFMEMAERMVSEGWKDAGYEYLCIDDCWMAPQRDSEGRLQADPQRFPHGIRQLANYVHSKGLKLGIYADVGNKTCAGFPGSFGYYDIDAQTFADWGVDLLKFDGCYCDSLENLADGYKHMSLALNRTGRHIVYSCEWPLYMWPFQKPNYTEIRQYCNHWRNFADIDDSWKSIKSILDWTSRNQERIVDVAGPGGWNDPDMLVIGNFGLSWDQQVTQMALWAIMAAPLFMSNDLRHISPQAKALLQDKDVIAINQDPLGKQGYQLRKGDNFEVWERPLSGDAWAVAIINRQEIGGPRSYTIPVASLGKGVACNPACFITQLLPVKRQLGFYNWTSRLKSHINPTGTVLLQLENTMQMSLKDLL
modifications: Synthetic Polypeptide sequence of Variant No. 412 of mature Human GLA
- Relative Activity of GLA Variants After Challenge at pH 3.7 [1]: ++ (>1.5 to 2.5 relative activity over Rd4BB (SEQ ID NO: 15))
- Relative Activity of GLA Variants After Challenge at pH 9.65 [2]: + (0.5 to 1.5 relative activity over Rd4BB (SEQ ID NO: 15))
- Relative Activity of GLA Variants After No Challenge (NC) [3]: + (0.5 to 1.5 relative activity over Rd4BB (SEQ ID NO: 15))

B8: 414 (protein)
chain: LDNGLARTPTMGWLHWERFMCNLDCQEEPDSCISEKLFMEMAERMVSEGWKDAGYEYLCIDDCWMAPQRDSEGRLQADPQRFPHGIRQLANYVHSKGLKLGIYADVGNKTCAGFPGSFGYYDIDAQTFADWGVDLLKFDGCYCDSLENLADGYKHMSQALNRTGRSIVYSCEWPLYMWPFQKPNYTEIRQYCNHWRNFADIDDSWKSIKSILDWTSRNQERIVDVAGPGGWNDPDMLVIGNFGLSWDQQVTQMALWAIMAAPLFMSNDLRHISPQAKALLQDKDVIAINQDPLGKQGYQLRKGDNFEVWERPLSGDAWAVAIINRQEIGGPRSYTIPVASLGKGVACNPACFITQLLPVKRQLGFYNWTSRLKSHINPTGTVLLQLENTMQMSLKDLL
modifications: Synthetic Polypeptide sequence of Variant No. 414 of mature Human GLA
- Relative Activity of GLA Variants After Challenge at pH 3.7 [1]: + (0.5 to 1.5 relative activity over Rd4BB (SEQ ID NO: 15))
- Relative Activity of GLA Variants After Challenge at pH 9.65 [2]: + (0.5 to 1.5 relative activity over Rd4BB (SEQ ID NO: 15))
- Relative Activity of GLA Variants After No Challenge (NC) [3]: + (0.5 to 1.5 relative activity over Rd4BB (SEQ ID NO: 15))
